Test [1] has as its target T1, IL-7 receptor ectodomain (rhIL-7Rα) (human, UniProt P16871 21-239).
T1 chain: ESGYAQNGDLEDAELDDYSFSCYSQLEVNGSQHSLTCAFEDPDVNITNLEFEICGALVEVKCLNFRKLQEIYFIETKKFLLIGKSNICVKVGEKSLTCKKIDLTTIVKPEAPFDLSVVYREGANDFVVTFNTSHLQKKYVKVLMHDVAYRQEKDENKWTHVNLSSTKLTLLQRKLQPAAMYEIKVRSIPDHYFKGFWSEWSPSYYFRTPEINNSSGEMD
Put plainly: SPR. (In general: In SPR one partner is held on a chip, and binding of the other changes the refractive index at the surface.)

Test [2] deals with T2, N-terminal fragment of MMP-9-cleaved human IL-7 produced in E. coli (IL-7*) (human, UniProt P13232 26-128).
T2 construct: Interleukin-7, human, N-terminal fragment up to Ala128 (MMP-9 cleavage between Ala128 and Leu129); source: bought: Peprotech (produced in E. coli), then digested with MMP-9
T2 sequence (looked up): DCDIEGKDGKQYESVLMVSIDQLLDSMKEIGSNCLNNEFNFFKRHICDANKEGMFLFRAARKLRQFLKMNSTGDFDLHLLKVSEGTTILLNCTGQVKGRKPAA
Put plainly: non-reducing SDS-PAGE; IL-7 digested with MMP-9, electrophoresis with SDS and without reducing agent, compared with reducing conditions. As to conditions: both partners purified.

For test [3], the target named is T3, N-terminal fragment of MMP-9-cleaved human IL-7 produced in HEK-293 cells (IL-7*) (human, UniProt P13232 26-128, N-linked oligosaccharides (sites shown in Figure 1D)).
T3 construct: Interleukin-7, human, N-terminal fragment up to Ala128 (MMP-9 cleavage between Ala128 and Leu129); source: bought: Biolegend (produced in human HEK-293 cells), then digested with MMP-9
T3 sequence (looked up): T2 sequence (looked up)
Described as above. The settings on record: both partners purified.

Test [4] addresses T4, N-terminal fragment of MMP-9-cleaved His-tagged human IL-7 produced in insect cells (IL-7*) (human, UniProt P13232 26-128, N-linked glycosylation (partially glycosylated; sites shown in Figure 1D)).
T4 construct: Interleukin-7, human, N-terminal fragment up to Ala128 (MMP-9 cleavage between Ala128 and Leu129); also called N-terminal fragment of IL-7; source: bought: Novus (produced in insect cells), then digested with MMP-9
T4 sequence (looked up): T2 sequence (looked up)
Put plainly: pull-down; His-tagged IL-7 (C-terminal tag) digested with MMP-9, histidine tag pull-down with Ni-NTA magnetic microbeads under native conditions; bound and non-bound proteins resolved by reducing SDS-PAGE. The settings on record: both partners purified.

As usually defined, the Kd is the constant that tells how readily two partners part at equilibrium.

B1: MMP-9-cleaved recombinant human IL-7 produced in E. coli (cIL-7) (complex)
chain 1: T2 sequence (looked up)
chain 2: LGEAQPTKSLEENKSLKEQKKLNDLCFLKRLLQEIKTCWNKILMGTKEH
For B1, the equilibrium dissociation constant (Kd) in test [1] is 64 nM.

B2: C-terminal fragment of MMP-9-cleaved human IL-7 produced in E. coli (IL-7**) (domain or fragment, UniProt P13232 129-177, looked up)
chain: B1 chain 2
notes: Interleukin-7, human, C-terminal fragment from Leu129 (neo-N-terminus LGEAQ); source: bought: Peprotech (produced in E. coli), then digested with MMP-9
B2: the binding result in test [2] is given as “binds”.

B3: C-terminal fragment of MMP-9-cleaved human IL-7 produced in HEK-293 cells (IL-7**) (domain or fragment, UniProt P13232 129-177, looked up)
chain: B1 chain 2
notes: Interleukin-7, human, C-terminal fragment from Leu129 (neo-N-terminus LGEAQ); source: bought: Biolegend (produced in human HEK-293 cells), then digested with MMP-9
With B3, the binding result in test [3] was “binds”.

B4: MMP-9-cleaved recombinant human IL-7 produced in human HEK-293 cells (cIL-7) (complex)
chain 1: T2 sequence (looked up)
chain 2: B1 chain 2
modifications: N-linked oligosaccharides (sites shown in Figure 1D)
In test [1], B4 gave a Kd of 290 nM.

B5: C-terminal fragment of MMP-9-cleaved His-tagged human IL-7 produced in insect cells (IL-7**) (domain or fragment, UniProt P13232 129-177, looked up)
chain: B1 chain 2
notes: Interleukin-7, human, C-terminal fragment from Leu129 (neo-N-terminus LGEAQ); Held on nickel beads by the C-terminal His tag; source: bought: Novus (produced in insect cells), then digested with MMP-9; not shown: His tag, C-terminal, kept
In the case of B5, the binding result in test [4] was “binds”.

These data come from article PMC8278288 (Frontiers in Immunology, 2021).
